Assay results published in the RNAGym collection of RNA variant scans (doi:10.1073/pnas.2313332121).

B1: TPR t1 (parent)
chain: GACCAAUCUGCCCUCAGAGCUCGAGAACAUCUUCGGAUGCAGAGGAGGCAGGCUUCGGUGGCGCGAUAGCGCCAACGUCCUCAACCUCCAAUGCAUCCCACCACAUGAUGAUGCCUGAAGAGCCUUGGUUUUUUG

Variants of: B1
Assay: polymerase ribozyme fitness, log enrichment relative to wild type (log ratio); higher = more active; in vitro selection for triplet polymerase activity
Summary of the method: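 Mutant libraries for each subunit of a heterodimeric triplet polymerase ribozyme were made by PCR and then transcribed. Each library underwent one round of in vitro selection in triplicate: annealing with a biotinylated primer, the partner subunit and triplets, frozen incubation at −7 °C, gel excision of extended constructs, streptavidin-bead capture and RT-PCR. Input and output libraries were Illumina-sequenced, and only genotypes with ≥10 input reads and ≥1 read per output were kept. Fitness is the logarithm, base 2, of genotype enrichment over wild-type enrichment, computed from inverse-variance-weighted replicate averages.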

Row | Variant | polymerase ribozyme fitness (log ratio)
1 | GACCAAUCUGCCCUCAGAGCUCGAGAACAUCUUCGGAUGCAGAGGAGGCAGGCUUCGGUGGCCCGAUAGCGCCAACGUCCUCAAGCUCCAAUGCAUCCCACAACAUGAUGAUGCCUGAAGAGCCUUGGUUUUUUG [G63C C85G C102A] | -2.51
2 | GACCAAUCUGCCCUCAGAGCUCGAGAACAUCUUCGGAUGCAGAGGACGCAGGCUUCGGUGGCGCGAUAUCGCCAACGUCCUCAACCUCCCAUGCAUCCCACCAUAUGAUGAUGCCUGAAGAGCCUUGGUUUUUUG [G47C G69U A90C C104U] | -1.9
3 | GACCAAUCUGCCCACAGAGCUCGAGAACAUCUUCGGAUGCAGAGGAGGCAGGCUUCGGUGGCGCGAUAGCGCCAACGUCCUCAACCUCCAAUGCAUCCCACCACAUGAUGAGGCCUGAAGAGCCUUGGUUUUUUG [U14A U112G] | -0.736
4 | GACCAAUCUGCCCUCAGAGCUCGAGAACAUCUUCGGAUGCAGAGGAGGCAGGCUUAGGUGGCGCGAUAGCGCCAACGUCCUCAACCUCCAAUGCCUCCCACCACAAGAUGAUGCCUGAAGAGCCUUGAUUUUUUG [C56A A95C U106A G128A] | -3.3
5 | GACCAAUCUGCCCUCAGAGCUCGAGAACAUCUUCGGAUGCAGUGGAGGCAGGCUUCGGUGGCGCGAUAGCGCCAACGUCCUCAACCUCCAAUUCAUCCCACCACAUGAUGAAGCCUGAAGAGCCUUCGUUUUUUG [A43U G93U U112A G127C] | -2.82
6 | GACCAAUCUGCCCUCAGAGCUCGAGAACAUCUUCGGAUGCAGAGGAGGCAGGGUUCGGUGGCGCGAUAGCGCCAACGUCCUCAACCUCCAAUGCAUCCCACCACAUGAUAAUGCCUGAAGAGCCUUGGUUUUUUG [C53G G110A] | -1.16
7 | GACCAAUCUGCCCUCAGAGCUCGAGAACAUCUUCGGAUGCAUAGGAGGCAGGCUUUGGUGGCGCGAUAGCGCCAACGUCCUCAACCUCCAAUGCAUCCCACCACAUGAUGAUGCCUGAAGAGCCUUGGUUUUUUG [G42U C56U] | -1.29
8 | GACCAAUCUGCCCUCAGAGCUCGAGAACAUCUUCGGAUGCAGAGGAGGCAGGCUUCGGUGGCUCGAUAGCGCCAACGUCCUCAACCUCGAAUGCAUCCCACCACAUGAUGAUGCCUGAAGAGCCUUGGUUUUUUG [G63U C89G] | -1.88
9 | GACCAAUGUGCCCUCAGAGCUCGAGAACAUCUUCGGAUGCAGAGGAAGCAGGCUUCGGUGGCGCGAUAGCGCCAACGUCCUCAACCUCCAAUGCAUCCCACCACAUGAUGAUGCCUGAAGAGCCUUGGUUUUUUG [C8G G47A] | -0.0438
10 | GACCAAUCUGUCCUCAGAGCUCGAGAACAUCUUCGGAUGCAGGGGAGGCAGGCUUCGGUGGCACGAUAGCGCCAACGUCCUCAACCUCCAAUGCAUCCCACCACAUGAUGAUGCCUGAAGAGCCUUGGUUUUUUG [C11U A43G G63A] | -5.66
11 | GACCAAUCUGCCCUCAGAGCUCGAGAACAUCUUCGGAUGCAGAGGAGGCAGGCUUCUGUGGCGCGAUAGCGCCAACGUCCUCAACCUCCAAUGCAUCCAACCACAUGAUGAUGCCUGAAGAGCAUUGGUUUUUUG [G57U C99A C124A] | -4.71
12 | GACCAAUCUGCCCUCAGAGCUCGAGAACAUCUUCGGAUGCAGAAGAGGCAGGCUUCGGUGGCGCGAUAGCGCCAACGUCCUCAACCUCUAAUGCAUCCCACCACAUGAUGAUGGCUGAAGAGCCUUUGUUUAUUG [G44A C89U C114G G127U U132A] | -3.64
13 | GACCAAUCUGCCCCCAGAGCUCGAGAACAUCUUCGGAUGCAGAGGAGGCAGGCUUCGGUGGCGCGAUAGCGCCAACGUCCUCCACCUCCAAUGCAUCCCACCACAUGAUGAUGCCUGAAGAGCCUUGGUUUUUUG [U14C A83C] | -2.26
14 | GACCAAUGUGCCCUCAGAGCUCGAGAACAUCUUCGGAUGCAGAGGAGGCAGGCUUCGGUGGCGCGAUAGCGCCAACGCCCUCAACCUCCAAUACAUCCCACCACAUGAUGAUGCCUGAAGAGACUUGGUUUUUUG [C8G U78C G93A C123A] | 1.83
15 | GACCAUUCUGUCCUCAGAGCUUGAGAACAUCUUCGGAUGCCGAGGAGGCAGGCUUCGGUGGCGCGAUAGCGCCAACGUCCUCAACCUCCAAUGCAUCCCACCACAUGAUGAUGCCUGAAGAGCCUUGGUUUUUUG [A6U C11U C22U A41C] | -5.83
16 | GACCAUUCUGCCCUCAGAGCUCGAGAACAUCUUCGGAUGCAGAGGAGGCAGGCUUCGGUGGCGCGAUAGCGCCAACUCCCUCAACUUCCAAUGCAUCCCACCACAUCAUGAGGCCUGAAGAGCCUUGGUUUUUUG [A6U G77U U78C C86U G107C U112G] | -5.66
17 | GACCAAUCUGCCCUCAGAGCUCGAGAACAUCUUCGGAUGCAGAGGAGGCAGGCUUCGGUGCCGCGAUAGCGCCAGCGUCCGCAACCUCCAAUGCAUCCCACCACAUGAUGAUGCCUGAAGAGCCUUGGUUUUUUG [G61C A75G U81G] | -4.25
18 | GACCAAUCUGCCCUCAGAGCUCGAGAACAUCUUCGGAUGCAGAGGAUGCAGGCUUCGGUGGCGCGAUAGCGCCAACGUCCUCAACCUCCAAUGCUUCCCAUCAAAUGAUGGUGCCUGAAGAGGCUUGGUUUUUUG [G47U A95U C101U C104A A111G C123G] | -5.49
19 | GACCAAUCUGCCCUCAGAGCUCGAGAAGAUCUUCGGCUGCAGAGGAGGCAGGCUUCGGUGGCGCGAUAGCGCCAACGUCCUCAACCUCCAAUGCAUCCCACCACAUGAUGAUGCCUGAAGAGCCUUGGUUUUUUG [C28G A37C] | -3.7
20 | GACCAAUCUGCCCUCAGAGCUCGAGAACAUCUUCGGGUGCAGAGGAGGCAGGCUUCGGUGGCGCGAUAGCGCCAACGUCCUCAACCUACAUUGCAUCCCACCACAUGAUGAUGCCUGAAGAGCCUUGGUUUUUUG [A37G C88A A91U] | -4.17
21 | GACCAUUCUGCCCUCAGAGCUCGAGAACAUCUUCGGAUGCAGAGGAGGCAGGCUUCGGUUGCGCGAUAGCGCCAACGUCCUCAACCUCCAAUGCAUCCCACCACAUGAUGAUGCCUGAAGAGCCUUGGUUUUUUG [A6U G60U] | -0.858
